Test results reported in PMC3817195, “Crystal Structure of a Four-Layer Aggregate of Engineered TMV CP Implies the Importance of Terminal Residues for Oligomer Assembly” (PLoS ONE, 2013).

Experiments:
[1] = molecular target: the molecule itself; experiment: SEC; freshly purified protein, 20 mM sodium phosphate, 100 mM NaCl, pH 8.0; superdex 200, 4°C
[2] = molecular target: the molecule itself; experiment: native gel or EMSA; native-PAGE on ice (4% stacking, 17% separating gel, Tris-Gly pH 8.8); samples equilibrated overnight in 10 mM PB pH 7.2, 100 mM NaCl

Protein | stoichiometry N [1] | binding result [2]
N-His-TMV CP^19 (tobacco mosaic virus coat protein, N-terminal six-His tag, C-terminal residues 155-158 truncated) (domain or fragment, Tobacco mosaic virus (common strain) coat protein, residues 1-154; Gly155, Pro156, Ala157 and Thr158 deleted at the C-terminus; no tag cleavage is described; Oligomeric state depends on buffer: monomer and dimer, 20S, disks, four-layer aggregate, rods; also called genetically engineered TMV CP; truncated TMV CP; source: E. coli BL21 (DE3) RIL, purified (HisTrap, gel filtration on superdex 200); …) SYSITTPSQFVFLSSAWADPIELINLCTNALGNQFQTQQARTVVQRQFSEVWKPSPQVTVRFPDSDFKVYRYNAVLDPLVTALLGAFDTRNRIIEVENQANPTTAETLDATRRVDDATVAIRSAINNLIVELIRGTGSYNRSSFESSSGLVWTS | 2 | –
wild type TMV CP (tobacco mosaic virus coat protein) (natural protein, also called WT TMV CP; wild TMV CP) SYSITTPSQFVFLSSAWADPIELINLCTNALGNQFQTQQARTVVQRQFSEVWKPSPQVTVRFPDSDFKVYRYNAVLDPLVTALLGAFDTRNRIIEVENQANPTTAETLDATRRVDDATVAIRSAINNLIVELIRGTGSYNRSSFESSSGLVWTSGPAT | – | binds
